Here are results for 13 molecules from US20220235136A1 (YALE UNIVERSITY, published 2022).

In experiment [1] the target is T1, human CD93 on cells (CD93-transfected HEK293T cells; endogenous on HUVEC cells) (human, UniProt Q9NPY3 22-652).
T1 construct: in the co-immunoprecipitation it comes from HUVEC lysate; also called CD93 transfectant; CD93+ 293 cells
T1 sequence: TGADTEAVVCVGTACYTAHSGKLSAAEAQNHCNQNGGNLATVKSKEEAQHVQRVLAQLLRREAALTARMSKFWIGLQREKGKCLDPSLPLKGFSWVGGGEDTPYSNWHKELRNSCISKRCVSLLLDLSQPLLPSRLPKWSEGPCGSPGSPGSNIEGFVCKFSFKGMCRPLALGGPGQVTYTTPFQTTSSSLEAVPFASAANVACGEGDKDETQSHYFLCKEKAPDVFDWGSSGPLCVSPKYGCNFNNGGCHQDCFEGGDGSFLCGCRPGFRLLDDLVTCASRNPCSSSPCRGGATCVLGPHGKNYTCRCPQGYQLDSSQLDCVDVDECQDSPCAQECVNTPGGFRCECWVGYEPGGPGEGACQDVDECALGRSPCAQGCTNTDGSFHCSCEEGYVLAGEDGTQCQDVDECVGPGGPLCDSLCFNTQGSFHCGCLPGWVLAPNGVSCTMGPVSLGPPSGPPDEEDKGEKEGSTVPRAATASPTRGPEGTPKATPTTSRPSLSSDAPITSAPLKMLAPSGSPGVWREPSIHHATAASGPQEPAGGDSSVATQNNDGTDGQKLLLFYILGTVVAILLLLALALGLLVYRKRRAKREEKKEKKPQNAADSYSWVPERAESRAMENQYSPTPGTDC
As to the kind of experiment: flow cytometry, HEK293T supernatant of the Fc-tagged protein on CD93 transfectant; binding index = MFI of CD93 transfectant / MFI of control cells.

For experiment [2], the target named is T1, human CD93 on cells (CD93-transfected …). Description: flow cytometry, HEK293T supernatant on CD93 transfectant; binding index = MFI of CD93 transfectant / MFI of control.
The target is the same in experiment [3]. As to the kind of experiment: flow cytometry, IGFBP7-Ig on CD93-transduced or control HEK293T cells.

B1: CTGF (Fc fusion, human, UniProt P29279 27-349, looked up)
fusion chain: QNCSGPCRCPDEPAPRCPAGVSLVLDGCGCCRVCAKQLGELCTERDPCDPHKGLFCHFGSPANRKIGVCTAKDGAPCIFGGTVYRSGESFQSSCKYQCTCLDGAVGCMPLCSMDVRLPSPDCPFPRRVKLPGKCCEEWVCDEPKDQTVVGPALAAYRLEDTFGPDPTMIRANCLVQTTEWSACSKTCGMGISTRVTNDNASCRLEKQSRLCMVRPCEADLEENIKKGKKCIRTPKISKPIKFELSGCTSMKTYRAKFCGVCTDGRCCTPHRTTTLPVEFKCPDGEVMKKNMMFIKTCACHYNCPGDNDIFESLYYRKMYGDMA
notes: member of the group m19; HEK293T supernatant
Turning to B1, the binding result in experiment [1] is “no binding”.

B2: KAZALD1 (Fc fusion, human, UniProt Q96I82 31-304, looked up)
fusion chain: RPSPGPDYLRRGWMRLLAEGEGCAPCRPEECAAPRGCLAGRVRDACGCCWECANLEGQLCDLDPSAHFYGHCGEQLECRLDTGGDLSRGEVPEPLCACRSQSPLCGSDGHTYSQICRLQEAARARPDANLTVAHPGPCESGPQIVSHPYDTWNVTGQDVIFGCEVFAYPMASIEWRKDGLDIQLPGDDPHISVQFRGGPQRFEVTGWLQIQAVRPSDEGTYRCLGRNALGQVEAPASLTVLTPDQLNSTGIPQLRSLNLVPEEEAESEENDDYY
notes: as for B1
Take B2: the binding result in experiment [1] is given as “no binding”.

B3: ESM1 (Fc fusion, human, UniProt Q9NQ30 20-184, looked up)
fusion chain: WSNNYAVDCPQHCDSSECKSSPRCKRTVLDDCGCCRVCAAGRGETCYRTVSGMDGMKCGPGLRCQPSNGEDPFGEEFGICKDCPYGTFGMDCRETCNCQSGICDRGTGKCLKFPFFQYSVTKSSNRFVSLTEHDMASGDGNIVREEVVKENAAGSPVMRKWLNPR
notes: as for B1
With B3, the binding result in experiment [1] is listed as “no binding”.

B4: IGFBP2 (Fc fusion, human, UniProt P18065 36-325, looked up)
fusion chain: AEVLFRCPPCTPERLAACGPPPVAPPAAVAAVAGGARMPCAELVREPGCGCCSVCARLEGEACGVYTPRCGQGLRCYPHPGSELPLQALVMGEGTCEKRRDAEYGASPEQVADNGDDHSEGGLVENHVDSTMNMLGGGGSAGRKPLKSGMKELAVFREKVTEQHRQMGKGGKHHLGLEEPKKLRPPPARTPCQQELDQVLERISTMRLPDERGPLEHLYSLHIPNCDKHGLYNLKQCKMSLNGQRGECWCVNPNTGKLIQGAPTIRGDPECHLFYNEQQEARGVHTQRMQ
notes: as for B1
With B4, in experiment [1], the binding result is listed as “no binding”.

B5: WISP1 (Fc fusion, human, UniProt O95388 23-367, looked up)
fusion chain: TALSPAPTTMDFTPAPLEDTSSRPQFCKWPCECPPSPPRCPLGVSLITDGCECCKMCAQQLGDNCTEAAICDPHRGLYCDYSGDRPRYAIGVCAQVVGVGCVLDGVRYNNGQSFQPNCKYNCTCIDGAVGCTPLCLRVRPPRLWCPHPRRVSIPGHCCEQWVCEDDAKRPRKTAPRDTGAFDAVGEVEAWHRNCIAYTSPWSPCSTSCGLGVSTRISNVNAQCWPEQESRLCNLRPCDVDIHTLIKAGKKCLAVYQPEASMNFTLAGCISTRSYQPKYCGVCMDNRCCIPYKSKTIDVSFQCPDGLGFSRQVLWINACFCNLSCRNPNDIFADLESYPDFSEIAN
notes: as for B1
With B5, the binding result in experiment [1] is on record as “no binding”.

B6: WISP3 (Fc fusion, human, UniProt O95389 24-354, looked up)
fusion chain: TGPLDTTPEGRPGEVSDAPQRKQFCHWPCKCPQQKPRCPPGVSLVRDGCGCCKICAKQPGEICNEADLCDPHKGLYCDYSVDRPRYETGVCAYLVAVGCEFNQVHYHNGQVFQPNPLFSCLCVSGAIGCTPLFIPKLAGSHCSGAKGGKKSDQSNCSLEPLLQQLSTSYKTMPAYRNLPLIWKKKCLVQATKWTPCSRTCGMGISNRVTNENSNCEMRKEKRLCYIQPCDSNILKTIKIPKGKTCQPTFQLSKAEKFVFSGCSSTQSYKPTFCGICLDKRCCIPNKSKMITIQFDCPNEGSFKWKMLWITSCVCQRNCREPGDIFSELKIL
notes: as for B1
As to B6, in experiment [1], the binding result was “no binding”.

B7: CYR61 (Fc fusion, human, UniProt O00622 25-381, looked up)
fusion chain: TCPAACHCPLEAPKCAPGVGLVRDGCGCCKVCAKQLNEDCSKTQPCDHTKGLECNFGASSTALKGICRAQSEGRPCEYNSRIYQNGESFQPNCKHQCTCIDGAVGCIPLCPQELSLPNLGCPNPRLVKVTGQCCEEWVCDEDSIKDPMEDQDGLLGKELGFDASEVELTRNNELIAVGKGSSLKRLPVFGMEPRILYNPLQGQKCIVQTTSWSQCSKTCGTGISTRVTNDNPECRLVKETRICEVRPCGQPVYSSLKKGKKCSKTKKSPEPVRFTYAGCLSVKKYRPKYCGSCVDGRCCTPQLTRTVKMRFRCEDGETFSKNVMMIQSCKCNYNCPHANEAAFPFYRLFNDIHKFRD
notes: as for B1
For B7, the binding result in experiment [1] is “no binding”.

B8: IGFBP1 (Fc fusion, human, UniProt P08833 26-259, looked up)
fusion chain: APWQCAPCSAEKLALCPPVSASCSEVTRSAGCGCCPMCALPLGAACGVATARCARGLSCRALPGEQQPLHALTRGQGACVQESDASAPHAAEAGSPESPESTEITEEELLDNFHLMAPSEEDHSILWDAISTYDGSKALHVTNIKKWKEPCRIELYRVVESLAKAQETSGEEISKFYLPNCNKNGFYHSRQCETSMDGEAGLCWCVYPWNGKRIPGSPEIRGDPNCQIYFNVQN
notes: as for B1
As for B8, in experiment [1], the binding result is “no binding”.

B9: IGFBP6 (Fc fusion, human, UniProt P24592 28-240, looked up)
fusion chain: RCPGCGQGVQAGCPGGCVEEEDGGSPAEGCAEAEGCLRREGQECGVYTPNCAPGLQCHPPKDDEAPLRALLLGRGRCLPARAPAVAEENPKESKPQAGTARPQDVNRRDQQRNPGTSTTPSQPNSAGVQDTEMGPCRRHLDSVLQQLQTEVYRGAQTLYVPNCDHRGFYRKRQCRSSQGQRRGPCWCVDRMGKSLPGSPDGNGSSSCPTGSSG
notes: as for B1
For the molecule B9, in experiment [1], the binding result is recorded as “no binding”.

B10: NOV (Fc fusion, not shown: a dimerising Fc or GST; small tags and cut ends)
chain: TQRCPPQCPGRCPATPPTCAPGVRAVLDGCSCCLVCARQRGESCSDLEPCDESSGLYCDRSADPSNQTGICTAVEGDNCVFDGVIYRSGEKFQPSCKFQCTCRDGQIGCVPRCQLDVLLPEPNCPAPRKVEVPGECCEKWICGPDEEDSLGGLTLAAYRPEATLGVEVSDSSVNCIEQTTEWTACSKSCGMGFSTRVTNRNRQCEMLKQTRLCMVRPCEQEPEQPTDKKGKKCLRTKKSLKAIHLQFKNCTSLHTYKPRFCGVCSDGRCCTPHNTKTIQAEFQCSPGQIVKKPVMVIGTCTCHTNCPKNNEAFLQELELKTTRGKM
notes: as for B1
B10: the binding result in experiment [1] is “no binding”.

B11: IGFBP7 fused to a C-terminal Ig (made in transfected HEK293T cells, used as supernatant) (Fc fusion, not shown: a dimerising Fc or GST; small tags and cut ends)
chain: SSSDTCGPCEPASCPPLPPLGCLLGETRDACGCCPMCARGEGEPCGGGGAGRGYCAPGMECVKSRKRRKGKAGAAAGGPGVSGVCVCKSRYPVCGSDGTTYPSGCQLRAASQRAESRGEKAITQVSKGTCEQGPSIVTPPKDIWNVTGAQVYLSCEVIGIPTPVLIWNKVKRGHYGVQRTELLPGDRDNLAIQTRGGPEKHEVTGWVLVSPLSKEDAGEYECHASNSQGQASASAKITVVDALHEIPVKKGEGAEL
notes: also called Fc tagged fusion protein of IGFBP7
As to B11, the binding result in experiment [2] is given as “binds”.

B12: Human IGFBP7 (Fc-tag), Sino Biological (Fc fusion)
chain: SSSDTCGPCEPASCPPLPPLGCLLGETRDACGCCPMCARGEGEPCGGGGAGRGYCAPGMECVKSRKRRKGKAGAAAGGPGVSGVCVCKSRYPVCGSDGTTYPSGCQLRAASQRAESRGEKAITQVSKGTCEQGPSIVTPPKDIWNVTGAQVYLSCEVIGIPTPVLIWNKVKRGHYGVQRTELLPGDRDNLAIQTRGGPEKHEVTGWVLVSPLSKEDAGEYECHASNSQGQASASAKITVVDALHEIPVKKGEGAEL
notes: Bought; also called IGFBP7-Ig; recombinant IGFBP7 protein; not shown: Fc tag of the bought fusion protein
As to B12, the binding result in experiment [3] is “binds”.

B13: IGFBP4 (Fc fusion, human, UniProt P22692 22-258, looked up)
fusion chain: DEAIHCPPCSEEKLARCRPPVGCEELVREPGCGCCATCALGLGMPCGVYTPRCGSGLRCYPPRGVEKPLHTLMHGQGVCMELAEIEAIQESLQPSDKDEGDHPNNSFSPCSAHDRRCLQKHFAKIRDRSTSGGKMKVNGAPREDARPVPQGSCQSELHRALERLAASQSRTHEDLYIIPIPNCDRNGNFHPKQCHPALDGQRGKCWCVDRKTGVKLPGGLEPKGELDCHQLADSFRE
notes: as for B1
Regarding B13, in experiment [1], the binding result is “no binding”.
